The values that follow come from patent US20220025021A1 (BETH ISRAEL DEACONESS MEDICAL CENTER, published 2022).

First the molecules themselves.
B1: MS-86 (antibody)
VH: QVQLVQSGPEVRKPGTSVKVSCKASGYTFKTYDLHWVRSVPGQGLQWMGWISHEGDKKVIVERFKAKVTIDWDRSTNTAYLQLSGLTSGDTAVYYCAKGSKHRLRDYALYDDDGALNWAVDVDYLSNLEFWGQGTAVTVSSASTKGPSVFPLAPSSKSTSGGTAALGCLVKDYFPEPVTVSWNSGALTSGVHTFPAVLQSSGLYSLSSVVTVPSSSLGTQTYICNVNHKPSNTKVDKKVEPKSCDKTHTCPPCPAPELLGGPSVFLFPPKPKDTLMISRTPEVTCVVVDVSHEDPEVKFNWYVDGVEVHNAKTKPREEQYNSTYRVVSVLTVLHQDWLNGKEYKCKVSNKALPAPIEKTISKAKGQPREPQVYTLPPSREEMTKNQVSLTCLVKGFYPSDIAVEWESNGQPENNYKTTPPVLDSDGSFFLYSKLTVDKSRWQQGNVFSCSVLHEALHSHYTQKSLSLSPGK
VL: DFVLTQSPHSLSVTPGESASISCKSSHSLIHGDRNNYLAWYVQKPGRSPQLLIYLASSRASGVPDRFSGSGSDKDFTLKISRVETEDVGTYYCMQGRESPWTFGQGTKVDIKRTVAAPSVFIFPPSDEQLKSGTASVVCLLNNFYPREAKVQWKVDNALQSGNSQESVTEQDSKDSTYSLSSTLTLSKADYEKHKVYACEVTHQGLSSPVTKSFNRGEC
B2: MS-75 (antibody, V domains shown)
VH: QVQLVQSGPEVRKPGTSVKVSCKASGNTLKTYDLHWVRSVPGQGLQWMGWISHEGDKKVIVERFKAKVTIDWDRSTNTAYLQLSGLTSGDTAVYYCAKGSKHRLRDYALYDDDGALNWAVDVDYLSNLEFWGQGTAVTVSS
VL: DFVLTQSPHSLSVTPGESASISCKSSHSLIHGDRNNYLAWYVQKPGRSPQLLIYLASSRASGVPDRFSGSGSDKDFTLKISRVETEDVGTYYCMQGRESPWTFGQGTKVDIKR
B3: MS-84 (antibody, V domains shown)
VH: B2 VH with S25P, T87R
VL: B2 VL with H9L, S12P, S18P, R47Q, T85A, T90V
B4: MS-78 (antibody, V domains shown)
VH: B2 VH with S25P, Q46E
VL: B2 VL
B5: MS-77 (antibody, V domains shown)
VH: B2 VH with S25P, L29F
VL: B2 VL
B6: MS-83 (antibody, V domains shown)
VH: B2 VH with S25P, D113E
VL: B2 VL
B7: MS-85 (antibody, V domains shown)
VH: B2 VH with S25P
VL: B2 VL with F2I, D73G, K74T
B8: MS-80 (antibody, V domains shown)
VH: B2 VH with S25P, W72R
VL: B2 VL
B9: MS-81 (antibody, V domains shown)
VH: B2 VH with S25P, Q82E
VL: B2 VL
B10: MS-76 (antibody, V domains shown)
VH: B2 VH with S25P, N27Y
VL: B2 VL
B11: MS-79 (antibody, V domains shown)
VH: B2 VH with S25P, D71T
VL: B2 VL
B12: MS-82 (antibody, V domains shown)
VH: B2 VH with S25P, T87R
VL: B2 VL

Where a chain is given by its changes, count along the chain named. A value given as a limit tells only on which side of the number the result lay.

One assay addresses HIV-1 Env of pseudovirus SC422661.8 (HIV-1). In words: cell-based or functional assay.
For the molecule B1, the “neutralization IC50” value stood at 1.2 µg/mL and the “neutralization IC80” value was greater than 25 µg/mL.
For B2, in that order: 0.489 µg/mL and 9.41 µg/mL.
As to B3, the “neutralization IC50” value was 0.192 µg/mL and the “neutralization IC80” value was determined as 1.37 µg/mL.
For B4, in that order: 0.635 µg/mL and 3.63 µg/mL.
For B5, the “neutralization IC50” value amounted to 0.373 µg/mL and the “neutralization IC80” value was 3.59 µg/mL.
Regarding B6, the “neutralization IC50” value was determined as 0.267 µg/mL and the “neutralization IC80” value came to 2.11 µg/mL.
Regarding B7, the “neutralization IC50” value was found to be 0.54 µg/mL and the “neutralization IC80” value is 7.04 µg/mL.
For the molecule B8, the “neutralization IC50” value was 0.451 µg/mL and the “neutralization IC80” value was greater than 25 µg/mL.
For B9, the “neutralization IC50” value worked out at 0.418 µg/mL and the “neutralization IC80” value stood at 4.25 µg/mL.
Take B10: the “neutralization IC50” value came out at 0.36 µg/mL and the “neutralization IC80” value amounted to 6.46 µg/mL.
As for B11, the “neutralization IC50” value turned out to be 0.587 µg/mL and the “neutralization IC80” value is greater than 25 µg/mL.
Consider B12, for which the “neutralization IC50” value turned out to be 0.387 µg/mL and the “neutralization IC80” value was determined as 3.29 µg/mL.

For another assay, the target named is HIV-1 Env of pseudovirus RHPA4259.7 (HIV-1). The experiment in a line: cell-based or functional assay.
B1: the “neutralization IC50” value is 0.305 µg/mL and the “neutralization IC80” value came out at 1.1 µg/mL.
In the case of B2, the “neutralization IC50” value was 0.276 µg/mL and the “neutralization IC80” value worked out at 1.31 µg/mL.
The like results for B3 were, in that order, 0.175 µg/mL and 0.773 µg/mL.
For B4, in that order: 0.241 µg/mL and 0.841 µg/mL.
The like results for B5 were, in that order, 0.209 µg/mL and 0.734 µg/mL.
Take B6: the “neutralization IC50” value is 0.15 µg/mL and the “neutralization IC80” value was determined as 0.663 µg/mL.
Regarding B7, the “neutralization IC50” value was found to be 0.173 µg/mL and the “neutralization IC80” value was 0.794 µg/mL.
For the molecule B8, the “neutralization IC50” value worked out at 0.267 µg/mL and the “neutralization IC80” value worked out at 1.24 µg/mL.
As for B9, the “neutralization IC50” value stood at 0.202 µg/mL and the “neutralization IC80” value amounted to 0.897 µg/mL.
On to B10, for which the “neutralization IC50” value was 0.242 µg/mL and the “neutralization IC80” value turned out to be 0.842 µg/mL.
Consider B11, for which the “neutralization IC50” value amounted to 0.221 µg/mL and the “neutralization IC80” value came to 0.792 µg/mL.
For B12, the “neutralization IC50” value stood at 0.192 µg/mL and the “neutralization IC80” value turned out to be 0.672 µg/mL.

In a further assay the target is HIV-1 Env of pseudovirus Du172.17 (HIV-1). The experiment in a line: cell-based or functional assay.
Consider B1, for which the “neutralization IC50” value was 4.94 µg/mL and the “neutralization IC80” value is 18.8 µg/mL.
Turning to B2, the “neutralization IC50” value amounted to 3.56 µg/mL and the “neutralization IC80” value was determined as 16.1 µg/mL.
For B3, in that order: 1.64 µg/mL and 6.55 µg/mL.
As for B4, the “neutralization IC50” value came out at 1.71 µg/mL and the “neutralization IC80” value was 7 µg/mL.
Turning to B5, the “neutralization IC50” value is 2.23 µg/mL and the “neutralization IC80” value turned out to be 12.2 µg/mL.
On to B6, for which the “neutralization IC50” value was 1.47 µg/mL and the “neutralization IC80” value turned out to be 7.4 µg/mL.
Regarding B7, the “neutralization IC50” value stood at 2.23 µg/mL and the “neutralization IC80” value worked out at 9.53 µg/mL.
The like results for B8 were, in that order, 15.2 µg/mL and greater than 25 µg/mL.
With B9, the “neutralization IC50” value worked out at 1.65 µg/mL and the “neutralization IC80” value came out at 6.37 µg/mL.
For B10, in that order: 1.7 µg/mL and 9.68 µg/mL.
As for B11, the “neutralization IC50” value came out at 7.28 µg/mL and the “neutralization IC80” value is greater than 25 µg/mL.
As to B12, the “neutralization IC50” value came to 1.88 µg/mL and the “neutralization IC80” value was 7 µg/mL.

The next assay has as its target HIV-1 Env of pseudovirus BB1012-11.TC21 (HIV-1). In words: cell-based or functional assay.
Consider B1, for which the “neutralization IC50” value was 0.048 µg/mL and the “neutralization IC80” value is 0.159 µg/mL.
For B2, in that order: 0.029 µg/mL and 0.134 µg/mL.
The like results for B3 were, in that order, 0.019 µg/mL and 0.085 µg/mL.
Consider B4, for which the “neutralization IC50” value is 0.024 µg/mL and the “neutralization IC80” value came to 0.105 µg/mL.
As for B5, the “neutralization IC50” value turned out to be 0.023 µg/mL and the “neutralization IC80” value is 0.103 µg/mL.
Regarding B6, the “neutralization IC50” value is 0.018 µg/mL and the “neutralization IC80” value worked out at 0.082 µg/mL.
As for B7, the “neutralization IC50” value turned out to be 0.028 µg/mL and the “neutralization IC80” value is 0.124 µg/mL.
Regarding B8, the “neutralization IC50” value is 0.02 µg/mL and the “neutralization IC80” value was found to be 0.086 µg/mL.
Regarding B9, the “neutralization IC50” value worked out at 0.024 µg/mL and the “neutralization IC80” value was 0.102 µg/mL.
The like results for B10 were, in that order, 0.013 µg/mL and 0.059 µg/mL.
The like results for B11 were, in that order, 0.019 µg/mL and 0.08 µg/mL.
For B12, in that order: 0.023 µg/mL and 0.108 µg/mL.

In a further assay the target is HIV-1 Env of pseudovirus CNE52 (HIV-1). In words: cell-based or functional assay.
For the molecule B1, the “neutralization IC50” value is 1.46 µg/mL and the “neutralization IC80” value turned out to be 13.3 µg/mL.
Take B2: the “neutralization IC50” value was 0.687 µg/mL and the “neutralization IC80” value came to 7.55 µg/mL.
Regarding B3, the “neutralization IC50” value was 0.092 µg/mL and the “neutralization IC80” value turned out to be 0.83 µg/mL.
For the molecule B4, the “neutralization IC50” value is 0.233 µg/mL and the “neutralization IC80” value came out at 1.39 µg/mL.
As for B5, the “neutralization IC50” value turned out to be 0.322 µg/mL and the “neutralization IC80” value turned out to be 2.71 µg/mL.
As to B6, the “neutralization IC50” value was found to be 0.135 µg/mL and the “neutralization IC80” value was 1.04 µg/mL.
Regarding B7, the “neutralization IC50” value is 0.341 µg/mL and the “neutralization IC80” value was 4.71 µg/mL.
For B8, in that order: 5.25 µg/mL and greater than 25 µg/mL.
B9: the “neutralization IC50” value was 0.212 µg/mL and the “neutralization IC80” value came to 1.8 µg/mL.
With B10, the “neutralization IC50” value was 0.174 µg/mL and the “neutralization IC80” value turned out to be 1.37 µg/mL.
For the molecule B11, the “neutralization IC50” value was found to be 2.42 µg/mL and the “neutralization IC80” value was greater than 25 µg/mL.
For B12, in that order: 0.206 µg/mL and 1.18 µg/mL.

The target of the next assay is HIV-1 Env of pseudovirus 0260.v5.c36 (HIV-1). In words: cell-based or functional assay.
On to B1, for which the “neutralization IC50” value stood at 0.036 µg/mL and the “neutralization IC80” value is 0.191 µg/mL.
For B2, in that order: 0.034 µg/mL and 0.137 µg/mL.
Take B3: the “neutralization IC50” value was 0.016 µg/mL and the “neutralization IC80” value worked out at 0.062 µg/mL.
As to B4, the “neutralization IC50” value is 0.02 µg/mL and the “neutralization IC80” value stood at 0.095 µg/mL.
As to B5, the “neutralization IC50” value came to 0.019 µg/mL and the “neutralization IC80” value worked out at 0.101 µg/mL.
For B6, the “neutralization IC50” value was found to be 0.023 µg/mL and the “neutralization IC80” value was 0.087 µg/mL.
Consider B7, for which the “neutralization IC50” value was determined as 0.019 µg/mL and the “neutralization IC80” value is 0.059 µg/mL.
With B8, the “neutralization IC50” value came out at 0.041 µg/mL and the “neutralization IC80” value worked out at 0.321 µg/mL.
With B9, the “neutralization IC50” value came to 0.02 µg/mL and the “neutralization IC80” value was 0.075 µg/mL.
As to B10, the “neutralization IC50” value turned out to be 0.01 µg/mL and the “neutralization IC80” value was found to be 0.06 µg/mL.
For B11, in that order: 0.028 µg/mL and 0.159 µg/mL.
Turning to B12, the “neutralization IC50” value stood at 0.016 µg/mL and the “neutralization IC80” value was 0.051 µg/mL.
